Test results published in the Immune Epitope Database (IEDB).

What was measured:
Assay in all cases: IEDB peptide-MHC binding, purified MHC/competitive/radioactivity; ≥ and ≤ were set here for values at or beyond the usual limits of such assays
Conditions in all cases: source organism: Bordetella pertussis
HLA-B*07:02 = target: HLA-B*07:02
HLA-B*35:01 = target: HLA-B*35:01
HLA-B*44:03 = target: HLA-B*44:03
HLA-A*02:01 = target: HLA-A*02:01
HLA-B*57:01 = target: HLA-B*57:01
HLA-B*53:01 = target: HLA-B*53:01

AAAEVAGAL
IC50 (HLA-B*07:02): 6.11 µM | IC50 (HLA-B*35:01): 69.9 µM | IC50 (HLA-B*44:03): 49.4 µM

AGKSLKKKN
IC50 (HLA-A*02:01): ≥ 78.1 µM

APPGAGFIY
IC50 (HLA-B*35:01): 16.5 µM

ECSGKQDCP
IC50 (HLA-B*07:02): 69.6 µM

EHRMQEAVE
IC50 (HLA-A*02:01): ≥ 78.1 µM

ESAEGRKIF
IC50 (HLA-B*44:03): 36.7 µM | IC50 (HLA-B*57:01): ≥ 70.4 µM

FETYALTGI
IC50 (HLA-B*44:03): 35.8 µM

IPFQRALRL
IC50 (HLA-B*53:01): 2.3 µM

IVIPPKALF
IC50 (HLA-B*57:01): 45.6 µM

MEYFKTPLP
IC50 (HLA-B*44:03): 28.1 µM

VAAAADLAL
IC50 (HLA-B*53:01): 21.7 µM

VPFCFGKDL
IC50 (HLA-B*07:02): 12.1 µM

VTMRYLASY
IC50 (HLA-B*35:01): 35.4 µM | IC50 (HLA-B*57:01): 0.0142 µM

YDTGDLIAY
IC50 (HLA-B*35:01): 69.9 µM
